Assay results reported in publication PMC2196039.
Several values for one entry are separate records, joined by “and”; a condition that tells them apart may be missing. Equal values may be shown once. Read-outs that look alike come from different tables or passages of the source. Each block holds one substance with its values, some of them ahead of it.

Tests used:
[1] = target: soluble recombinant CD80 (sCD80), sCD80his after removal of the carboxy-terminal oligo-histidine tag (human); test: SPR
CD28 Ig [2] = target: CD28 Ig (UniProt P10747); test: SPR
CTLA-4 Ig (human) [3] = target: CTLA-4 Ig (human) (UniProt P16410); test: SPR
CD28 Ig [4] = target: CD28 Ig (UniProt P10747); test: SPR; remark: listed apart in the source
CTLA-4 Ig (human) [5] = target: CTLA-4 Ig (human) (UniProt P16410); test: SPR; remark: listed apart in the source
CD28 Ig [6] = target: CD28 Ig (UniProt P10747); test: SPR; remark: listed apart in the source
CTLA-4 Ig (human) [7] = target: CTLA-4 Ig (human) (UniProt P16410); test: SPR; remark: listed apart in the source
CD28 Ig [8] = target: CD28 Ig (UniProt P10747); test: SPR; remark: listed apart in the source
CTLA-4 Ig (human) [9] = target: CTLA-4 Ig (human) (UniProt P16410); test: SPR; remark: listed apart in the source
CTLA-4 Ig (human) [10] = target: CTLA-4 Ig (human) (UniProt P16410); test: pull-down

Sequence of CTLA-4 Ig (P16410 37-161): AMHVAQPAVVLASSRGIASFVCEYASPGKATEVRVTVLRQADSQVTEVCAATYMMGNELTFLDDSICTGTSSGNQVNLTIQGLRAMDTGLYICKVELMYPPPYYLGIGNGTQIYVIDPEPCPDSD

- fold higher avidity than CD28 Ig [1]: > 100 fold
Substance: CTLA-4 Ig (from UniProt P16410 37-161) (Fc fusion)

- Kd (CD28 Ig [2]): 2500 nM
- Kd (CTLA-4 Ig (human) [3]): 260 nM
- Kd (CD28 Ig [4]): 4000 nM
- Kd (CTLA-4 Ig (human) [5]): 420 nM
- Kd (CD28 Ig [6]): 4200 nM
- Kd (CTLA-4 Ig (human) [7]): 380 nM
- Kd (CD28 Ig [8]): 4100 nM and 4300 nM
- response at 0.82 μM sCD80 (CD28 Ig 7800 RUs), beginning of the experiment (CD28 Ig [8]): 160 RU
- t1/2 of dissociation (high CD28 Ig level, 40 μl/min) (CD28 Ig [8]): 0.93 s
- t1/2 of dissociation (high CD28 Ig level, 80 μl/min) (CD28 Ig [8]): 0.84 s
- t1/2 of dissociation (low CD28 Ig level, 40 μl/min) (CD28 Ig [8]): 0.69 s
- t1/2 of dissociation (low CD28 Ig level, 80 μl/min) (CD28 Ig [8]): 0.64 s
- Kd (CTLA-4 Ig (human) [9]): 400 nM
- response at 0.26 μM sCD80 (CTLA-4 Ig 1,500 RUs), beginning of the experiment (CTLA-4 Ig (human) [9]): 255 RU
- response at 0.26 μM sCD80 (CTLA-4 Ig 1,500 RUs), end of the experiment (CTLA-4 Ig (human) [9]): 250 RU
- t1/2 of dissociation (high CTLA-4 Ig level, 20 μl/min) (CTLA-4 Ig (human) [9]): 4.8 s
- t1/2 of dissociation (high CTLA-4 Ig level, 40 μl/min) (CTLA-4 Ig (human) [9]): 4.4 s
- t1/2 of dissociation (low CTLA-4 Ig level, 20 μl/min) (CTLA-4 Ig (human) [9]): 2.2 s
- t1/2 of dissociation (low CTLA-4 Ig level, 40 μl/min) (CTLA-4 Ig (human) [9]): 2.35 s
- proportion of sCD80 with CTLA-4-binding activity (CTLA-4 Ig (human) [10]): 100%
Substance: soluble recombinant CD80 (sCD80), sCD80his after removal of the carboxy-terminal oligo-histidine tag (domain or fragment)
